Data: publication PMC9369236, “Unravelling the Adaptation Mechanisms to High Pressure in Proteins” (International Journal of Molecular Sciences, 2022)

Columns and labels:
[1] = molecular target: Phosphomannose isomerase from Thermococcus kodakarensis, expressed from pET-16b (Thermococcus kodakarensis); assay: SEC; AKTA FPLC, XK50-60 column with 1 L Superdex 75 Prep-Grade resin, calibrated with the GE Healthcare Low Molecular Weight kit; elution at double the expected MW; self-association (dimer)
[2] = molecular target: the molecule itself; assay: as above

stoichiometry N [1] | Molecule | stoichiometry N [2]
2 | Phosphomannose isomerase from Thermococcus kodakarensis, expressed from pET-16b (enzyme) | 
 | Phosphomannose isomerase from Thermococcus barophilus, expressed from pET-16b (enzyme, Phosphomannose isomerase (PMI) of Thermococcus barophilus, gene TERMP_00744, synthetic codon-optimized gene; Construct for neutron scattering; removal of the tag is not mentioned; also called Tba PMI; PMI) MKAEIKEFIDRGTYRKAPLFEGELPEGSYAQIVEIKPKQTVPKHYHEKQYELFYIISGQAKLGIEEREYDAKPGDIFLVKPKTVHWVVNKKEEPFRLFVIKLNYFGDDSVWLE | 2
